Here are results for one substance from paper doi:10.1101/325035.

The target in the assay is sfGFP-Ensconsin (full length) (Drosophila). Kind of assay: TIRF microscopy.

With “K560-mScarlet (truncated Kinesin-1 motor) (domain or fragment)”, the fluorescence intensity of K560-mScarlet on microtubules with 25 nM sfGFP-Ensc turned out to be 34200 A.U.
